Measurements reported in patent US20200164069A1 (BOSTON PHARMACEUTICALS, published 2020).

T1: IL-7 (UniProt P13232 26-177)
T1 sequence (looked up): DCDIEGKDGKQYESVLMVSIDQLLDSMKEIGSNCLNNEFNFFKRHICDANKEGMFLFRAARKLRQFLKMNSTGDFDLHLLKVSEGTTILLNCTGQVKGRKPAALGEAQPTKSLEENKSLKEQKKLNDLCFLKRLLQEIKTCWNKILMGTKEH

T2: IL-4 (UniProt P05112 25-153)
T2 sequence (looked up): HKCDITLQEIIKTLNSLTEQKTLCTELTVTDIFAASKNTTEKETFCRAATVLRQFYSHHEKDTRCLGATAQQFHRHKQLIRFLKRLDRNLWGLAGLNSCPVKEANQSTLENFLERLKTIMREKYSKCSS

B1: murine monoclonal antibody 9F11 (antibody, V domains shown)
VH: EVELVESGGGLVQPGGSMKLSCAASGFTFSDAWMDWVRQSPEKGLEWVAEIRSEADNHPTYYAESVKGRFTISRDDSKSSVYLQMNSLRAEDSGIYYCTEYDYEGFVHWGQGTLVTVSA
VL: DIVLTQSPASLAVSLGQRATISCRASKSVSTYGYSYMHWYQQKPGQPPKLLIYLASNLESGVPARFSGSGSGTDFTLNIHPVEEEDAATYYCQHSRELPLTFGAGTKLELK
notes: also called 9F11.1
B2: recombinant cynomolgus monkey IL-21 (ligand)
chain: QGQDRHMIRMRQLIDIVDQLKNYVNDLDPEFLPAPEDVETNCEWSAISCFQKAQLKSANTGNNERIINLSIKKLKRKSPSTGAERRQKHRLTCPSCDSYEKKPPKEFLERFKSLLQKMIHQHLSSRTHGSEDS
notes: also called cyno IL-21; cynoIL-21
B3: K44VHa-N56Q (MEDI7169) (antibody, V domains shown)
VH: QVQLVQSGAEVKKPGASVKVSCKASGYTFTDYWMHWVRQAPGQGLEWMGTIDPSDQYTIYSQNFKGRVTMTRDTSTSTVYMELSSLRSEDTAVYYCARYGFAMDYWGQGTLVTVSS
VL: DIQLTQSPSSLSASVGDRVTITCRASQDISNFLNWYQQKPGKAVKLLIYYTSRLHSGVPSRFSGSGSGTDYTLTISSLQPEDFATYYCQQGHTLPRTFGGGTKVEIK

Key:
[1] = molecular target: T3, IL-21 (species not stated in the assay) (Homo sapiens (Human), UniProt Q9HBE4 25-162, Biotinylated in the competition ELISA of paragraph 259 (sites not given); unlabelled in the other results.); test: cell-based or functional assay
T3 sequence (Q9HBE4 25-162 limits assumed): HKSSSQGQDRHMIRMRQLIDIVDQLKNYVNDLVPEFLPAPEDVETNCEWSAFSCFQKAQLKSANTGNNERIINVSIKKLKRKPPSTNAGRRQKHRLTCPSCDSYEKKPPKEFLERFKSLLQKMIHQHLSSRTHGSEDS

[2] = molecular target: T4, recombinant human IL-21 (human, UniProt Q9HBE4 30-162, limits assumed); test: cell-based or functional assay
T4 sequence (Q9HBE4 30-162 limits assumed, form in doubt): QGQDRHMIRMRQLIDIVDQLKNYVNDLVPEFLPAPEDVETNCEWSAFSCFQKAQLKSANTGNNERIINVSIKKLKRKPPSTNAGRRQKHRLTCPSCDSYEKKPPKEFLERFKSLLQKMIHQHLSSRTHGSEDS

[3] = molecular target: B2; test: cell-based or functional assay
[4] = molecular target: T4, recombinant human IL-21; test: method not stated for this clone (Table 2, column Kd hu)
[5] = molecular target: T4, recombinant human IL-21; test: cell-based or functional assay; remark: listed apart in the source
[6] = molecular target: B2; test: cell-based or functional assay; remark: listed apart in the source
[7] = molecular target: T3, IL-21 (species not stated in the assay); test: method not stated
[8] = molecular target: T4, recombinant human IL-21; test: cell-based or functional assay; remark: listed apart in the source
[9] = molecular target: B2; test: cell-based or functional assay; remark: listed apart in the source
[10] = molecular target: IL-2 (UniProt P60568 21-153); test: ELISA on plate-coated cytokine (2 µg/ml)
IL-2, sequence (P60568 21-153 limits assumed): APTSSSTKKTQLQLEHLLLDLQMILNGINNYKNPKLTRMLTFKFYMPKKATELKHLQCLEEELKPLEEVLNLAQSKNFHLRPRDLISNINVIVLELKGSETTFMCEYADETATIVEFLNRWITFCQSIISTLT
Method: (§1) ELISA was used to test cross reactivity of lead clones. Cytokines tested include 11-2, IL-4, IL-7, IL-9, and IL-15. Maxisorp ELISA plate (NUNC) was coated with 2 μg/ml of different cytokines in PBS at 4° C. overnight. The plate was then blocked with 3% BSA in PBST (PBS+0.1% Tween) at room temperature for one hour. Purified lead clone IgGs were serially diluted in PBST+3% BSA and the mixture was then added to each ELISA plate well and further incubated at room temperature for half an hour. After washing, secondary antibody-HRP was added to each well for 1 hour. Wells were washed first with PBST and then with PBS and the TMB solution from Pierce was added to detect the secondary antibody. After 5′ the reaction was stopped by the addition of 1N sulfuric acid. The plates were then read in an ELISA reader at 450 nm to detect the binding.

[11] = molecular target: T1, IL-7; test: ELISA on plate-coated cytokine (2 µg/ml)
Method: as §1

[12] = molecular target: T2, IL-4; test: ELISA on plate-coated cytokine (2 µg/ml)
Method: as §1

[13] = molecular target: T4, recombinant human IL-21; test: cell-based or functional assay; remark: listed apart in the source
[14] = molecular target: B2; test: cell-based or functional assay; remark: listed apart in the source
[15] = molecular target: B3; test: KinExA solution-phase equilibrium titration: fixed 500 fM K44VHa-N56Q (MEDI7169) IgG, cynomolgus monkey IL-21 varied; free IgG captured on IL-21-coated beads (the competitor)
Method: (§2) The IL-21-coated Azlactone bead slurries were diluted to 30 mL with instrument buffer (PBS, pH 7.4, 0.02% NaN3) in a bead vial and affixed to the KinExA instrument. A user-defined timing program was used to sequentially transfer the IL-21/Azlactone beads to a capillary flow cell in the instrument, and individual sample mixtures were injected over the IL-21-coated beads. Unbound sample solution was removed by washing the beads with instrument buffer. A 1- or 2-μg/mL solution of the DyLight649-labeled, goat-anti-hulgG(H+L) secondary reagent (Thermo Scientific) was passed over the beads to detect receptor (K44VHa-N56Q) that remained bound to the IL-21-coated beads. […] The amount of fluorescence that remained associated with the beads was measured, and the signal was converted to percent free receptor (K44VHa-N56Q). […] Once the data had been collected for all samples in each series (500 fM and 50 pM K44VHa-N56Q), an isotherm was generated, which plotted the amount of free K44VHa-N56Q detected at each concentration of IL-21. The resulting 2 binding curves were then evaluated in a dual curve analysis using the instrument's evaluation software (KinExA Pro Software, v. 2.0.1.26, Sapidyne) from which individual KDS for each interaction were derived.
(§3) The binding of K44VHa-N56Q to human and cynomolgus monkey IL-21 was measured by KinExA. […]

[16] = molecular target: B3; test: KinExA solution-phase equilibrium titration: fixed 50 pM K44VHa-N56Q (MEDI7169) IgG, cynomolgus monkey IL-21 varied; free IgG captured on IL-21-coated beads (the competitor)
Method: as §2, §3

[17] = molecular target: T4, recombinant human IL-21; test: KinExA 3000, solution-phase equilibrium, dual curve analysis
Method: as §2, §3

[18] = molecular target: B2; test: as above
Method: as §2, §3

[19] = molecular target: IL-15 (UniProt P40933 49-162); test: ELISA on plate-coated cytokine (2 µg/ml)
IL-15, sequence (P40933 49-162 limits assumed): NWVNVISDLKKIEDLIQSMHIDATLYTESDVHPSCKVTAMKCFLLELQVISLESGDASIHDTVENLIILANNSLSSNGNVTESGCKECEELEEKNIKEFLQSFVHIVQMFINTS
Method: as §1

| Binder | maximal inhibition in pSTAT3 assay [1] [%] | inhibition of IgG production by human B cells [2] [%] | inhibition of IgG production by human B cells [3] [%] | Kd [4] [pM] | IC50 in NK-92 cell assay (IFNγ, 200 pM IL-21) [5] [pM] | IC50 in NK-92 cell assay (IFNγ, 200 pM IL-21) [6] [pM] | Kd [7] [pM] | IC50 in PC differentiation assay (2 nM IL-21) [8] [pM] | IC50 in PC differentiation assay (2 nM IL-21) [9] [pM] | binding result [10] | binding result [11] | binding result [12] | IC50 in pSTAT3 assay (human PBMCs, 20 pM IL-21) [13] [pM] | IC50 in pSTAT3 assay (human PBMCs, 20 pM IL-21) [14] [pM] | IC50 (read off the curve) [15] [pM] | IC50 (read off the curve) [16] [pM] | Kd [17] [pM] | Kd [18] [pM] | binding result [19] |
| --- | --- | --- | --- | --- | --- | --- | --- | --- | --- | --- | --- | --- | --- | --- | --- | --- | --- | --- | --- |
| B1 | 100 | 97 | 79 | 9.99 | 462 | 867 | 10000 | 47300 | 74000 | no binding | no binding | no binding | 21.7 | 83.2 |  |  |  |  |  |
| B2 |  |  |  |  |  |  |  |  |  |  |  |  |  |  | ~1 | ~60 |  |  |  |
| B3 | 100 |  |  |  | 92.7 | 80.8 |  | 777 | 1060 | no binding | no binding | no binding | 17.2 | 19.3 |  |  | 0.515 | 0.352 | no binding |
